Data: the supplement of paper PMC10567573

B1: TCEB3B (parent)
chain: STTALGDKQRKANESKGTRESWDS
B2: PTPRD (parent)
chain: ITWFKDFLPVDTSNNNGRIKQLRS

Variants of: B1
Test: protein stability index of a GFP-peptide fusion (GPS, HEK-293T) (PSI 1-6); higher = more stable
Settings: c terminus: a fixed tail appended
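Also: lentivirally expressed fusions sorted by FACS into six bins by GFP to DsRed ratio, PSI derived from sequencing read proportions per bin multiplied by bin number.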

Compared with STTALGDKFRKANESKGTRESWDS, STTALGDKQRKANESKGTRESFDS is higher in protein stability index: 3.29 for the first, 5.38 for the second.

Compared with STTALGDAQRKANESKGTRESWDS, STTALGDFQRKANESKGTRESWDS is higher in protein stability index: 3.83 for the first, 3.88 for the second.

First: STTALGDKQRKANWSKGTRESWDS
Second: STTALGDKQRKANSSKGTRESWDS
The protein stability index of the first is lower: 2.73 for the first, 3.82 for the second.

Going from STTALGDKQRKANESKGTREMWDS to STTALGDKQRKANESKGTRELWDS, the protein stability index falls from 5.23 to 4.99.

First: STTALGDKQRKANESKGTRERWDS
Second: STTALGDKQRKANESKGTREPWDS
The protein stability index of the first is lower: 4.82 for the first, 5.24 for the second.

Compared with STTALGDKQRKANESKGTRYSWDS, STTALGDKQRKANESKGTRESWKS is lower in protein stability index: 4.92 for the first, 2.47 for the second.

First: STTALGDKQRKANESNGTRESWDS
Second: STTALGDKQRKANESDGTRESWDS
The protein stability index of the first is lower: 3.97 for the first, 4.96 for the second.

First: STTALGDKQRKANESSGTRESWDS
Second: STTRLGDKQRKANESKGTRESWDS
The protein stability index of the first is higher: 4.42 for the first, 3.34 for the second.

Going from WTTALGDKQRKANESKGTRESWDS to VTTALGDKQRKANESKGTRESWDS, the protein stability index rises from 2.74 to 4.06.

Going from STTALGCKQRKANESKGTRESWDS to STTALGDKQRLANESKGTRESWDS, the protein stability index rises from 3.57 to 3.65.

Variants of: B2
Test: as above
Settings: c terminus: a fixed tail appended

Compared with ITWFKDFLPVDTSNNNGRIMQLRS, ITWFKDFLPVDTSNNNGRIKQLRA is higher in protein stability index: 1.55 for the first, 1.96 for the second.

Going from ITWFKDFLPVDTSNNNGRIKQLRE to ITWFKDFLPVDTSNNNGRIKYLRS, the protein stability index rises from 1.77 to 1.93.

First: ITWFKDFLPVDTSNNNGRIKPLRS
Second: ITWFKDFLPVDTSNNNGRIKRLRS
The protein stability index of the first is higher: 2.01 for the first, 1.55 for the second.

Going from VTWFKDFLPVDTSNNNGRIKQLRS to GTWFKDFLPVDTSNNNGRIKQLRS, the protein stability index rises from 2.15 to 3.39.

Compared with DTWFKDFLPVDTSNNNGRIKQLRS, ITWFKDFLPVDTSNNNGRIKQLPS is lower in protein stability index: 3.88 for the first, 1.8 for the second.

Going from ITWFKDFLPVDTSNNNGRIKQLES to ITWFKDFLPVDTSNNNGRIKQLMS, the protein stability index falls from 2.77 to 1.88.

Going from ITWFKDFLPVDTSNNNGRIKQLWS to ITWFKDFLPVDTSNNNGRIKQLGS, the protein stability index rises from 1.11 to 1.74.

Compared with ITWFKDFTPVDTSNNNGRIKQLRS, ITWFKDFQPVDTSNNNGRIKQLRS is lower in protein stability index: 2.23 for the first, 1.78 for the second.

Compared with ITWFKDFAPVDTSNNNGRIKQLRS, ITWFKFFLPVDTSNNNGRIKQLRS is higher in protein stability index: 2.14 for the first, 3.07 for the second.

Going from ITWFKWFLPVDTSNNNGRIKQLRS to ITKFKDFLPVDTSNNNGRIKQLRS, the protein stability index rises from 2.26 to 2.85.

First: ITSFKDFLPVDTSNNNGRIKQLRS
Second: ITWFKDDLPVDTSNNNGRIKQLRS
The protein stability index of the first is higher: 3.62 for the first, 2.74 for the second.

First: ITWFKDPLPVDTSNNNGRIKQLRS
Second: ITWFKDWLPVDTSNNNGRIKQLRS
The protein stability index of the first is higher: 2.32 for the first, 1.82 for the second.

Going from ITWFKDFLPVDTSNNNGRIKQFRS to ITWFKDFLPVDTSNNNGRIKQTRS, the protein stability index rises from 2.01 to 2.12.

Going from ITWFKDFLPVDTSNNNGRIKQPRS to ITWFKDFLPVDTSNNNGRIKQIRS, the protein stability index rises from 1.63 to 2.24.

Compared with ITWFKDFLPVDTSNNNGRIKQERS, ITWFKDFLPVDTSNNNGRIKQSRS is lower in protein stability index: 2.07 for the first, 2.04 for the second.

Going from ITWFKDFLPVDTSNNNGRYKQLRS to ITWFKDFLPVDTSNNNGRGKQLRS, the protein stability index rises from 2.13 to 2.24.

Compared with ITWFKDFLPVDTSNNNGRQKQLRS, ITWFKDFLPVDTSNNNGREKQLRS is lower in protein stability index: 2.57 for the first, 1.95 for the second.

First: ITWFKDFLPVDTSNNNGRMKQLRS
Second: ITWFKDFLPVDTSNNDGRIKQLRS
The protein stability index of the first is higher: 2.04 for the first, 1.88 for the second.

Going from ITWFKDFLPVDTSNNGGRIKQLRS to ITWFKDFLPVDTSNNPGRIKQLRS, the protein stability index rises from 1.7 to 2.32.

Going from ITWFKDFLPVDTSNNNGQIKQLRS to ITWFKDFLDVDTSNNNGRIKQLRS, the protein stability index falls from 2.24 to 2.09.

First: ITWFKDFLHVDTSNNNGRIKQLRS
Second: ITWFKDFLMVDTSNNNGRIKQLRS
The protein stability index of the first is lower: 1.45 for the first, 2.31 for the second.

Compared with ITWVKDFLPVDTSNNNGRIKQLRS, ITWYKDFLPVDTSNNNGRIKQLRS is higher in protein stability index: 1.87 for the first, 1.95 for the second.

Compared with ITWFKDFLPVDTINNNGRIKQLRS, ITWFKDFLPVDTCNNNGRIKQLRS is higher in protein stability index: 1.41 for the first, 1.54 for the second.

First: ITWFKDFLPVDTENNNGRIKQLRS
Second: ITWFKDFLPVDTTNNNGRIKQLRS
The protein stability index of the first is lower: 1.7 for the first, 1.95 for the second.

Compared with ITWFKDFLPVDTHNNNGRIKQLRS, ITWFKDFLPVDTSNNNCRIKQLRS is lower in protein stability index: 2.05 for the first, 1.88 for the second.

Compared with ITWFKDFLPVDTSNNNNRIKQLRS, ITWFKDFLPVDTSMNNGRIKQLRS is lower in protein stability index: 1.86 for the first, 1.79 for the second.

First: ITWFKDFLPTDTSNNNGRIKQLRS
Second: ITWFKDFLPMDTSNNNGRIKQLRS
The protein stability index of the first is lower: 1.76 for the first, 1.86 for the second.

Going from ITWFKDFLPYDTSNNNGRIKQLRS to ITWFKDFLPHDTSNNNGRIKQLRS, the protein stability index rises from 1.89 to 2.07.

Going from ITWFYDFLPVDTSNNNGRIKQLRS to ITWFRDFLPVDTSNNNGRIKQLRS, the protein stability index falls from 2.75 to 1.79.

Going from ITWFPDFLPVDTSNNNGRIKQLRS to ITWFKDFLPVYTSNNNGRIKQLRS, the protein stability index falls from 2.24 to 1.67.

Going from ITWFKDFLPVTTSNNNGRIKQLRS to ITWFKDFLPVWTSNNNGRIKQLRS, the protein stability index rises from 1.61 to 2.33.

Compared with ITWFKDFLPVHTSNNNGRIKQLRS, ITWFKDFLPVCTSNNNGRIKQLRS is higher in protein stability index: 1.73 for the first, 2.23 for the second.

First: ITWFKDFLPVDQSNNNGRIKQLRS
Second: ITWFKDFLPVDHSNNNGRIKQLRS
The protein stability index of the first is higher: 2.25 for the first, 1.48 for the second.

Compared with ITWFKDFLPVDNSNNNGRIKQLRS, ITWFKDFLPVDTSNENGRIKQLRS is higher in protein stability index: 1.51 for the first, 1.69 for the second.

Compared with ITWFKDFLPVDTSNMNGRIKQLRS, ITWFKDFLPVDTSNQNGRIKQLRS is lower in protein stability index: 1.8 for the first, 1.76 for the second.

Compared with IQWFKDFLPVDTSNNNGRIKQLRS, IHWFKDFLPVDTSNNNGRIKQLRS is higher in protein stability index: 1.84 for the first, 2.15 for the second.

First: IVWFKDFLPVDTSNNNGRIKQLRS
Second: ILWFKDFLPVDTSNNNGRIKQLRS
The protein stability index of the first is higher: 1.86 for the first, 1.41 for the second.
